Experimental data from US20100144645A1, “COMPOSITIONS AND METHODS FOR ENHANCING […] POTENCY OF […]-COMPOUNDS, A[…] ADVERSE SIDE EFFECTS, AND […] ABUSE” (SHIRE LLC, priority 2006, published 2010).
Residues, ends and D or L forms follow the SMILES beside them. *: point of attachment. X1 = COc1ccc2c3c1OC1C(O*)=CCC4[C@@H](C2)N(C)CC[C@]314

Key:
[1] = Oral bioavailability of oxycodone conjugates (plasma oxycodone plus oxymorphone); details: rats; for AUC % (Oral Bioavailability): Table G
[2] = Intranasal bioavailability of hydrocodone conjugates; details: rats, relative to hydrocodone
[3] = stability 90 C., 20 min (V, BP, TW, BS) of hydrocodone conjugates; details: for stability 90 C., 20 min BP: BP (abbreviation not defined); for stability 90 C., 20 min BS: BS (abbreviation not defined); for stability 90 C., 20 min TW: TW (abbreviation not defined); for stability 90 C., 20 min V: V (abbreviation not defined)
[4] = Oral bioavailability of hydrocodone conjugates (plasma hydrocodone plus hydromorphone); details: for bioavailabiltty (% HC) oral AUC / bioavailabiltty (% HC) oral Cmax: rats, relative to hydrocodone; for Oral:IN Index AUC: ratio of oral to IN AUC (% HC); for Oral:IN Index Cmax: ratio of oral to IN Cmax (% HC)
[5] = n = 4 animals, analysis by LC-MS, OXY = 100

Question: Which “Oral (% AUC)” value [1, 5] does the source give for `COc1ccc2c3c1OC1C(OC(=O)[C@@H](NC(=O)[C@H](CC(C)C)NC(=O)[C@@H](N)CC(C)C)C(C)C)=CCC4(O)[C@@H](C2)N(C)CC[C@]314` (stereo partly drawn) [Leu-Leu-Val-OC] here?
Answer: Its value is 81 % AUC.

Question: With `COc1ccc2c3c1OC1C(OC(=O)[C@H](Cc4ccccc4)NC(=O)[C@H](CCC(=O)O)NC(=O)[C@@H](N)CCC(=O)O)=CCC4(O)[C@@H](C2)N(C)CC[C@]314` (stereo partly drawn) [Glu-Glu-Phe-OC] as the compound, how does the “Oral (% AUC)” value [1, 5] read?
Answer: The value was 49 % AUC.

Question: For `COc1ccc2c3c1OC1C(OC(=O)[C@H](Cc4ccccc4)NC(=O)[C@H](Cc4ccc(O)cc4)NC(=O)[C@@H](N)Cc4ccc(O)cc4)=CCC4(O)[C@@H](C2)N(C)CC[C@]314` (stereo partly drawn) [Tyr-Tyr-Phe-OC], which “Oral (% AUC)” value [1, 5] is on record?
Answer: The value was 73 % AUC.

Question: With `CC[C@H](C)[C@H](NC(=O)[C@H](Cc1ccc(O)cc1)NC(=O)[C@@H](N)Cc1ccc(O)cc1)C(=O)OC1=CCC2(O)[C@H]3Cc4ccc(OC)c5c4[C@@]2(CCN3C)C1O5` (stereo partly drawn) [Tyr-Tyr-Ile-OC] as the compound, how does the “Oral (% AUC)” value [1, 5] read?
Answer: The value was 85 % AUC.

Question: For `COc1ccc2c3c1OC1C(OC(=O)[C@@H](NC(=O)[C@H](Cc4ccccc4)NC(=O)[C@@H](N)Cc4ccccc4)C(C)C)=CCC4(O)[C@@H](C2)N(C)CC[C@]314` (stereo partly drawn) [Phe-Phe-Val-OC], which “Oral (% AUC)” value [1, 5] is on record?
Answer: The value was 32 % AUC.

Question: With `COc1ccc2c3c1OC1C(OC(=O)[C@@H](NC(=O)[C@H](Cc4ccc(O)cc4)NC(=O)[C@@H](N)Cc4ccc(O)cc4)C(C)C)=CCC4(O)[C@@H](C2)N(C)CC[C@]314` (stereo partly drawn) [Tyr-Tyr-Val-OC] as the compound, how does the “AUC % (Oral Bioavailability)” value [1] read?
Answer: Its value is 124%.

Question: What about the “Oral (% AUC)” value [1, 5] of the same compound?
Answer: Its value is 124 % AUC.

Question: Which “Oral (% AUC)” value [1, 5] does the source give for `CC[C@H](C)[C@H](NC(=O)[C@H](Cc1ccccc1)NC(=O)[C@@H](N)Cc1ccccc1)C(=O)OC1=CCC2(O)[C@H]3Cc4ccc(OC)c5c4[C@@]2(CCN3C)C1O5` (stereo partly drawn) [Phe-Phe-Ile-OC] here?
Answer: The value was 59 % AUC.

Question: Which “Oral (% AUC)” value [1, 5] does the source give for `COc1ccc2c3c1OC1C(OC(=O)[C@@H](NC(=O)[C@H](CCCCN)NC(=O)[C@@H](N)CCCCN)C(C)C)=CCC4(O)[C@@H](C2)N(C)CC[C@]314` (stereo partly drawn) [Lys-Lys-Val-OC] here?
Answer: Its value is 108 % AUC.

Question: Which “Oral (% AUC)” value [1, 5] does the source give for `COc1ccc2c3c1OC1C(OC(=O)[C@@H](NC(=O)[C@H](CCC(=O)O)NC(=O)[C@@H](N)CCC(=O)O)C(C)C)=CCC4(O)[C@@H](C2)N(C)CC[C@]314` (stereo partly drawn) [Glu-Glu-Val-OC] here?
Answer: The value was 55 % AUC.

Question: For `CC[C@H](C)[C@H](NC(=O)[C@H](CCC(=O)O)NC(=O)[C@@H](N)CCC(=O)O)C(=O)OC1=CCC2(O)[C@H]3Cc4ccc(OC)c5c4[C@@]2(CCN3C)C1O5` (stereo partly drawn) [Glu-Glu-Ile-OC], which “Oral (% AUC)” value [1, 5] is on record?
Answer: Its value is 179 % AUC.

Question: Which “Oral (% AUC)” value [1, 5] does the source give for `COc1ccc2c3c1OC1C(OC(=O)[C@H](CC(C)C)NC(=O)[C@H](CCC(=O)O)NC(=O)[C@@H](N)CCC(=O)O)=CCC4(O)[C@@H](C2)N(C)CC[C@]314` (stereo partly drawn) [Glu-Glu-Leu-OC] here?
Answer: Its value is 80 % AUC.

Question: With `COc1ccc2c3c1OC1C(OC(=O)[C@@H]4CCCN4C(=O)[C@H](CCC(=O)O)NC(=O)[C@@H](N)CCC(=O)O)=CCC4(O)[C@@H](C2)N(C)CC[C@]314` (stereo partly drawn) [Glu-Glu-Pro-OC] as the compound, how does the “Oral (% AUC)” value [1, 5] read?
Answer: Its value is 71 % AUC.

Question: With `CC[C@H](C)[C@H](NC(=O)[C@H](CCCCN)NC(=O)[C@@H](N)CCCCN)C(=O)OC1=CCC2(O)[C@H]3Cc4ccc(OC)c5c4[C@@]2(CCN3C)C1O5` (stereo partly drawn) [Lys-Lys-Ile-OC] as the compound, how does the “Oral (% AUC)” value [1, 5] read?
Answer: Its value is 74 % AUC.

Question: What does the source list for `COc1ccc2c3c1OC1C(OC(=O)[C@@H](NC(=O)[C@@H]4CCCN4C(=O)[C@@H]4CCCN4)C(C)C)=CCC4(O)[C@@H](C2)N(C)CC[C@]314` (stereo partly drawn) [Pro-Pro-Val-OC]?
Answer: AUC % (Oral Bioavailability) [1]: 152%; Oral (% AUC) [1, 5]: 152 % AUC

Question: With `COc1ccc2c3c1OC1C(OC(=O)[C@H](Cc4ccccc4)NC(=O)[C@H](CCCCN)NC(=O)[C@@H](N)CCCCN)=CCC4(O)[C@@H](C2)N(C)CC[C@]314` (stereo partly drawn) [Lys-Lys-Phe-OC] as the compound, how does the “Oral (% AUC)” value [1, 5] read?
Answer: Its value is 37 % AUC.

Question: Which “Oral (% AUC)” value ([1]; n = 4, LC-MS, Dosed at 40% higher levels than calculated) does the source give for `CC[C@H](C)[C@H](NC(=O)CNC(=O)CN)C(=O)OC1=CCC2(O)[C@H]3Cc4ccc(OC)c5c4[C@@]2(CCN3C)C1O5` (stereo partly drawn) [Gly-Gly-Ile-OC] here?
Answer: The value was 224 % AUC.

Question: For `COc1ccc2c3c1OC1C(OC(=O)[C@H](CC(C)C)NC(=O)[C@H](CCCCN)NC(=O)[C@@H](N)CCCCN)=CCC4(O)[C@@H](C2)N(C)CC[C@]314` (stereo partly drawn) [Lys-Lys-Leu-OC], which “Oral (% AUC)” value [1, 5] is on record?
Answer: The value was 46 % AUC.

Question: Which “Oral (% AUC)” value [1, 5] does the source give for `CC[C@H](C)[C@H](N)C(=O)N[C@H](C(=O)N[C@H](C(=O)OC1=CCC2(O)[C@H]3Cc4ccc(OC)c5c4[C@@]2(CCN3C)C1O5)[C@@H](C)CC)[C@@H](C)CC` (stereo partly drawn) [Ile-Ile-Ile-OC] here?
Answer: Its value is 83 % AUC.

Question: With `COc1ccc2c3c1OC1C(OC(=O)[C@@H]4CCCN4C(=O)[C@H](Cc4ccc(O)cc4)NC(=O)[C@@H](N)Cc4ccc(O)cc4)=CCC4(O)[C@@H](C2)N(C)CC[C@]314` (stereo partly drawn) [Tyr-Tyr-Pro-OC] as the compound, how does the “Oral (% AUC)” value [1, 5] read?
Answer: The value was 59 % AUC.

Question: What does the source list for `CC[C@H](C)[C@H](NC(=O)[C@@H]1CCCN1C(=O)[C@@H]1CCCN1)C(=O)OC1=CCC2(O)[C@H]3Cc4ccc(OC)c5c4[C@@]2(CCN3C)C1O5` (stereo partly drawn) [Pro-Pro-Ile-OC]?
Answer: AUC % (Oral Bioavailability) [1]: 85%; Oral (% AUC) [1, 5]: 85 % AUC

Question: Which results are given for `CC[C@H](C)[C@H](NC(=O)[C@@H]1CCCN1)C(=O)N[C@H](C(=O)OC1=CCC2[C@H]3Cc4ccc(OC)c5c4[C@@]2(CCN3C)C1O5)[C@@H](C)CC` (stereo partly drawn) [Pro-Ile-Ile-HC]?
Answer: bioavailabiltty (% HC) IN AUC [2]: 86 % HC; bioavailabiltty (% HC) IN Cmax [2]: 102 % HC; stability 90 C., 20 min BP [3]: 47; stability 90 C., 20 min BS [3]: 100; stability 90 C., 20 min TW [3]: 83; stability 90 C., 20 min V [3]: 0; bioavailabiltty (% HC) oral AUC [4]: 104 % HC; bioavailabiltty (% HC) oral Cmax [4]: 99 % HC; Oral:IN Index AUC [4]: 1.21; Oral:IN Index Cmax [4]: 0.97

Question: With `COc1ccc2c3c1OC1C(OC(=O)[C@@H](NC(=O)CNC(=O)CN)C(C)C)=CCC4(O)[C@@H](C2)N(C)CC[C@]314` (stereo partly drawn) [Gly-Gly-Val-OC] as the compound, how does the “Oral (% AUC)” value [1, 5] read?
Answer: The value was 123 % AUC.

Question: What does the source list for `COc1ccc2c3c1OC1C(OC(=O)[C@H](Cc4ccccc4)NC(=O)[C@@H]4CCCN4C(=O)[C@@H](N)CC(C)C)=CCC4[C@@H](C2)N(C)CC[C@]314` (stereo partly drawn) [Leu-Pro-Phe-HC]?
Answer: bioavailabiltty (% HC) IN AUC [2]: 83 % HC; bioavailabiltty (% HC) IN Cmax [2]: 101 % HC; stability 90 C., 20 min BP [3]: 100; stability 90 C., 20 min BS [3]: 100; stability 90 C., 20 min TW [3]: 100; stability 90 C., 20 min V [3]: 2; bioavailabiltty (% HC) oral AUC [4]: 106 % HC; bioavailabiltty (% HC) oral Cmax [4]: 125 % HC; Oral:IN Index AUC [4]: 1.28; Oral:IN Index Cmax [4]: 1.24

Question: What does the source list for `CC[C@H](C)[C@H](NC(=O)[C@H](CCC(=O)O)NC(=O)[C@H](CCC(=O)O)NC(=O)CNC(=O)CN)C(=O)OC1=CCC2[C@H]3Cc4ccc(OC)c5c4[C@@]2(CCN3C)C1O5` (some centres unmarked) [Gly2-Glu2-Ile-HC] (H-GGEEI-X1)?
Answer: bioavailabiltty (% HC) IN AUC [2]: 66 % HC; bioavailabiltty (% HC) IN Cmax [2]: 77 % HC; stability 90 C., 20 min BP [3]: 74; stability 90 C., 20 min BS [3]: 100; stability 90 C., 20 min TW [3]: 11; stability 90 C., 20 min V [3]: 0; bioavailabiltty (% HC) oral AUC [4]: 96 % HC; bioavailabiltty (% HC) oral Cmax [4]: 119 % HC; Oral:IN Index AUC [4]: 1.45; Oral:IN Index Cmax [4]: 1.55

Question: For `COc1ccc2c3c1OC1C(OC(=O)[C@H](Cc4ccccc4)NC(=O)[C@@H](NC(=O)[C@@H](N)C(C)C)C(C)C)=CCC4(O)[C@@H](C2)N(C)CC[C@]314` (stereo partly drawn) [Val-Val-Phe-OC], which “Oral (% AUC)” value [1, 5] is on record?
Answer: The value was 120 % AUC.

Question: Which “Oral (% AUC)” value [1, 5] does the source give for `COc1ccc2c3c1OC1C(OC(=O)[C@H](Cc4ccccc4)NC(=O)CNC(=O)CN)=CCC4(O)[C@@H](C2)N(C)CC[C@]314` (stereo partly drawn) [Gly-Gly-Phe-OC] here?
Answer: The value was 163 % AUC.
